Measured values reported in PMC5548745, “Agonist-induced dimer dissociation as a macromolecular step in G protein-coupled receptor signaling” (Nature Communications, 2017).

Assays:
[1] = tested on: ERK1/2 phosphorylation in MLE-12 cells; assay: P-ERK1/2 immunoblot, WNT-5A stimulated MLE-12 cells; format: cell-based, mouse; details: 300 ng ml^−1 WNT-5A
Procedure: MLE-12 or HEK293 cells (ATCC) were plated in a 24- or 48-well plate at a density of 100,000 or 50,000 cells/well, respectively. After 24 h, cells were transfected using Lipofectamine 2000 according to the manufacturer’s instructions. Cells were stimulated (24 h post-transfection) with 300 ng ml^−1 recombinant carrier-free WNT-5A (CF WNT-5A; R&D Systems). Stimulation was stopped by the addition of lysis buffer (1% NP-40, 150 mM NaCl, 50 mM Tris/HCl pH 8). Lysates were sonicated and analyzed by 7.5 or 10% Mini-PROTEAN TGX precast polyacrylamide gels (Bio-Rad) and transferred to PVDF membranes using the Trans-Blot Turbo system (Bio-Rad). […] Proteins were detected with horseradish peroxidase-conjugated secondary antibodies (goat anti-rabbit and goat anti-mouse (Pierce)) and Clarity Western ECL Blotting Substrate (Bio-Rad). […]
Supplementary Figure 6: FZD6 in mouse lung epithelial cells, related to Figure 6. […] The bar graph depicts expression levels of fzd1-10 mRNA in mouse lung epithelial cells (MLE-12) measured by quantitative PCR. […] Primer efficiency has been quantified previously (Halleskog et al., 2012). (b) MLE-12 wt and CRISPR/Cas9 FZD6+/- cells were seeded in a 24-well plate and counted after trypsinization at the indicated time points. Cell proliferation was quantified by cell counting in a Bürker chamber. […]

FZD6–FZD6 dimer = assay: dcFRAP of V5-FZD6-mCherry/FZD6-GFP (FZD6 dimerization); format: cell-based, human; details: HEK293, after CL
Method in brief: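 Live cells co-expressing V5-FZD6-mCherry and FZD6-GFP, surface V5 tag crosslinked with biotin-anti-V5 plus avidin in BE buffer at RT. Membrane areas photobleached, recovery imaged (488/561 nm) over 100 s; mobile fraction from background/bleach-corrected, pre-bleach-normalized intensity at 85-101 s. Cells with <40% crosslink-induced mobility reduction excluded.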

B1: WNT-5A: recombinant carrier-free WNT-5A (R&D Systems), agonist for FZDs (protein, UniProt P41221 62-380, looked up)
Protein Wnt-5a: IIGAQPLCSQLAGLSQGQKKLCHLYQDHMQYIGEGAKTGIKECQYQFRHRRWNCSTVDNTSVFGRVMQIGSRETAFTYAVSAAGVVNAMSRACREGELSTCGCSRAARPKDLPRDWLWGGCGDNIDYGYRFAKEFVDARERERIHAKGSYESARILMNLHNNEAGRRTVYNLADVACKCHGVSGSCSLKTCWLQLADFRKVGDALKEKYDSAAAMRLNSRGKLVQVNSRFNSPTTQDLVYIDPSPDYCVRNESTGSLGTQGRLCNKTSEGMDGCELMCCGRGYDQFKTVQTERCHCKFHWCCYVKCKKCTEIVDQFVCK
Question: B1 was tested. Which “phosphorylation of ERK1/2 on WNT-5A stimulation” value [1] did it give?
Answer: time-dependent, partially pertussis toxin-sensitive phosphorylation of ERK1/2

Question: What about the “time of maximal increase in P-ERK1/2” value ([1]; 0–20 min, three independent experiments) of the same molecule?
Answer: 5 min

Question: And the “mobile fraction of FZD6-GFP after WNT-5A, 5 min” value (FZD6–FZD6 dimer; WNT-5A 300 ng ml^−1, 5 min, 12 ROIs)?
Answer: 71.8 ± 3.2%

Question: What about the “mobile fraction of FZD6-GFP after WNT-5A, 20 min” value (FZD6–FZD6 dimer; WNT-5A 300 ng ml^−1, 20 min, 15 ROIs) of the same molecule?
Answer: 61.0 ± 2.2%
